Assay results as given in PMC3435109 (2012).

B1: RIIβ 102-265 (protein)
chain: PVINRFTRRASVCAEAYNPDEEEDDAESRIIHPKTDDQRNRLQEACKDILLFKNLDPEQMSQVLDAMFEKLVKEGEHVIDQGDDGDNFYVIDRGTFDIYVKCDGVGRCVGNYDNRGSFGELALMYNTPRAATITATSPGALWGLDRVTFRRIIVKNNAKKRKMY
B2: RIIβ 108-268 (protein)
chain: TRRASVCAEAYNPDEEEDDAESRIIHPKTDDQRNRLQEACKDILLFKNLDPEQMSQVLDAMFEKLVKEGEHVIDQGDDGDNFYVIDRGTFDIYVKCDGVGRCVGNYDNRGSFGELALMYNTPRAATITATSPGALWGLDRVTFRRIIVKNNAKKRKMYESF

Target: PKA catalytic subunit (Mus musculus, UniProt P05132)
Experiment: SPR

Row | Binder | Kd [nM]
1 | B1 | 0.6
2 | B2 | 11.3
